Key:
[1] = molecular target: dog K12del HA-tagged retinol-binding protein (^HARBP) (dog); test: non-reducing SDS-PAGE and western blot; conditioned media of transfected HeLa cells; no beta-mercaptoethanol; anti-HA, LI-COR
[2] = molecular target: dog K12del retinol-binding protein (RBP) in serum (dog (endogenous in serum)); test: non-reducing SDS-PAGE and western blot; dog serum; non-reducing conditions; gels treated with beta-mercaptoethanol before transfer

Substance	dimer fraction [1]	stoichiometry N [2]
dog K12del HA-tagged retinol-binding protein (^HARBP) (natural protein)	0.89	
dog K12del retinol-binding protein (RBP) in serum (natural protein)		2
